One experiment deals with T1, human EpCAM-GST (human, UniProt P16422 24-265).
T1 construct: also called soluble human EpCAM antigen; not shown: GST added to the C terminus (N5 vector)
T1 sequence: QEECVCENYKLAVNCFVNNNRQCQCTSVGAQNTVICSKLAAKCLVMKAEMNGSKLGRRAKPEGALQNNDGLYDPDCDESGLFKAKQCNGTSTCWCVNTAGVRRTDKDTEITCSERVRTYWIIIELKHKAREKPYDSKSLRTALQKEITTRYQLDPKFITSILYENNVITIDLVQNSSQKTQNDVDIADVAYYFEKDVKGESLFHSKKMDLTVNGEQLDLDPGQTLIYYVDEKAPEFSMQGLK
Nature of the experiment: phage ELISA on immobilized EpCAM-GST.

The target in the next experiment is T2, mouse EpCAM-GST (mouse, UniProt Q99JW5 24-266).
T2 construct: not shown: GST added to the C terminus (N5 vector)
T2 sequence: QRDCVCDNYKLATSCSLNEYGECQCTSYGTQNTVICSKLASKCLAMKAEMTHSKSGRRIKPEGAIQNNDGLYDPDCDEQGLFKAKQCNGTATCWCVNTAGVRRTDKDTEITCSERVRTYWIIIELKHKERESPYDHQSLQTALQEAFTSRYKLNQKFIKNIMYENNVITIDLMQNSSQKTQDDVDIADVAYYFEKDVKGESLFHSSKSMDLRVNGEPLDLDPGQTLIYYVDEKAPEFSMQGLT
The experiment is described as follows: phage ELISA on immobilized EpCAM-GST. Background: An ELISA detects its analyte on a solid surface through an enzyme-linked reagent.

The target in a further experiment is T3, monkey EpCAM-GST (monkey, UniProt Q1WER1 24-265).
T3 construct: not shown: GST added to the C terminus (N5 vector)
T3 sequence: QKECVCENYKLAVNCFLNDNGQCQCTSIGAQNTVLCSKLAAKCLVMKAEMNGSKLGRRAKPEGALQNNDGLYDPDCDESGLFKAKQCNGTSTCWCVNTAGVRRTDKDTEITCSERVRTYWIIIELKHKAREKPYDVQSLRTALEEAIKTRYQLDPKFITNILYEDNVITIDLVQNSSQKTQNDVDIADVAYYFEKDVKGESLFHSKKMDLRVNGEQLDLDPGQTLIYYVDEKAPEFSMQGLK
The experiment is described as follows: phage ELISA on immobilized EpCAM-GST.

Another experiment addresses T4, human CD40-GST (human, UniProt P25942 21-193).
T4 construct: also called soluble human CD40 antigen; not shown: GST region of the N5 vector
The experiment is described as follows: phage ELISA on immobilized CD40-GST. The method, then: (§1) In the ELISA, MAXISORP (manufactured by NUNC, Inc.) in which the human or monkey CD40-GST in Example 1 was immobilized on each well and a portion to which the human or monkey CD40-GST is not bound was blocked using SuperBlock Blockig Buffer (manufactured by Thermo Fisher, Inc.) was used. To each well, each phage clone was added and reacted at room temperature for 30 minutes, and thereafter, each well was washed 3 times with PBS-T.
(§2) Subsequently, an anti-M13 antibody (manufactured by GE Healthcare, Inc.) labeled with horseradish peroxidase was diluted by 5000 times with PBS-T containing 10% Block Ace (manufactured by Dainippon Pharmaceutical Co., Ltd.), and the resultant was added in an amount of 50 μL to each well, and incubated at room temperature for 30 minutes. After the microplate was washed four times with PBS-T, a TMB chromogenic substrate solution (manufactured by DAKO, Inc.) was added in an amount of 50 μL to each well and incubated at room temperature for 10 minutes.

Another experiment deals with T5, monkey CD40-GST (monkey, UniProt P25942 21-193 (human entry)).
T5 construct: not shown: GST region of the N5 vector
T5 chain: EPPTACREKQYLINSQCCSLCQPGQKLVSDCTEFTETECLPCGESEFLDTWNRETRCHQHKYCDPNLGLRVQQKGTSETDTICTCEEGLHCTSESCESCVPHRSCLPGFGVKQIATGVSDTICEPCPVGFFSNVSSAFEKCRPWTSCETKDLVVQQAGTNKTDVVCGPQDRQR
The experiment is described as follows: phage ELISA on immobilized CD40-GST. The method, then: as §1, §2

The target in experiment [1] is T6, human CD40 on Ramos cells (human, UniProt P25942 21-277).
T6 construct: Native CD40 of Ramos cells (Burkitt's lymphoma)
Nature of the experiment: flow cytometry on Ramos cells, detection with goat F(ab')2 anti-human IgG R-PE [A]. The protocol: (§3) Ramos cells were suspended in Staining Buffer (SB) that is D-PBS(−) containing 0.1% NaN₃ and 1% FBS at a cell density of 1×10⁶ cells/mL, and the suspension was dispensed in a 96-well round bottom plate (manufactured by Falcon, Inc.) at 100 μL/well.
(§4) After further centrifugation (2000 rpm, 4° C., 2 minutes), the supernatant was removed, the resulting pellet was washed three times with 200 μL/well of SB, and thereafter, 1 μg/mL of Goat F(ab′)₂ Anti-Human IgG (γ chain specific) R-phycoerythrin (R-PE) Conjugate (manufactured by Southern Biotech, Inc.) was added at 50 μL/well, and the resultant was incubated for 30 minutes at ice temperature. After washing twice with SB, the cells were suspended in 200 μL/well of SB, and the fluorescence intensity of each cell was measured using a flow cytometer FACSCANTO II (manufactured by Becton, Dickinson and Company).
A general note: Flow cytometry measures light scatter and fluorescence of single cells or particles in a stream.

Experiment [2] addresses T7, human EpCAM on human EpCAM/HEK 293 cells and Colo 205 cells (human, UniProt P16422 24-314).
T7 construct: Colo 205 cells carry native EpCAM; also called hEpCAM
T7 sequence: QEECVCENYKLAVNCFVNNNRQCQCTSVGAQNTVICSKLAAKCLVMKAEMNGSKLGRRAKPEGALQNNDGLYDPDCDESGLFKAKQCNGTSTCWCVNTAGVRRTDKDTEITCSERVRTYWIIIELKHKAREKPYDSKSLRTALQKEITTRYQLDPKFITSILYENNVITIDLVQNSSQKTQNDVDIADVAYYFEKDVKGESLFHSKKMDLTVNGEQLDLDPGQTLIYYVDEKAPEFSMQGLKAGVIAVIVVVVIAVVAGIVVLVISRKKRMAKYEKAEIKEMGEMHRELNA
Nature of the experiment: flow cytometry on Colo 205 cells and on human EpCAM/HEK 293 cells, antibody at 10 ug/mL, detection with goat F(ab')2 anti-human IgG R-PE [B), (D]. The method, then:
as §3, §4
(§5) Similarly, Colo 205 cells, HEK 293 cells, and human EpCAM/HEK 293 cells were evaluated, respectively. As the negative control, IgG4 antibodies 5228P, L235E, and R409K mutants (hereinafter referred to as anti-DNP antibodies) produced according to the method described in Example 5 of WO 2006/033386 using a vector encoding VL and VH (GenBank accession No. VL U16688, VH U116687) of the 2,4-dinitrophenol (DNP) antibody described in Mol Immunol. 1996 June; 33 (9): 759-68 were used.

The next experiment addresses T8, mouse CD40 (mouse, UniProt P27512 20-193, limits assumed).
T8 sequence (looked up): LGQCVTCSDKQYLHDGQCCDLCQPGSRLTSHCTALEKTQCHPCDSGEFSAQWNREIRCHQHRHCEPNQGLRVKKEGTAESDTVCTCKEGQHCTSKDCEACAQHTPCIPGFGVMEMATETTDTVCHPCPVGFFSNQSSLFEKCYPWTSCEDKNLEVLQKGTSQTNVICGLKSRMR
Nature of the experiment: not described.

Experiment [3] has as its target T7, human EpCAM on human EpCAM/HEK 293 …. Nature of the experiment: flow cytometry on Colo 205 cells and on human EpCAM/HEK 293 cells, detection with goat F(ab')2 anti-human IgG R-PE [B), (D]. The method, then:
as §3, §4, §5

B1: Epc112 phage clone (scFv, V domains shown)
VH: EVQLVQSGTEVKKPGASVKVSCRASGNTFTNYYIHWVRQAPGQGLEWMGIINPSGGATNYAQILQGRVTMTRDTSTSTVYMELSSLRSEDTAVYYCAGGGSAATFAYWGQGTLVTVSS
VL: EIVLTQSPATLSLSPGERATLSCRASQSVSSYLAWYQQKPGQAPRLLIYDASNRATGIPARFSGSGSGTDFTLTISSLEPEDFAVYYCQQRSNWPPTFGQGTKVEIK
As for B1, the binding result in the experiment with human EpCAM-GST, in the experiment with mouse EpCAM-GST and with monkey EpCAM-GST was “binds” each time.

B2: R2089 phage clone (scFv, V domains shown)
VH: EVQLVQSGAEVKKPGASVKVSCKASGYSFTRYIMHWVRQAPGQRLEWMGWINAGNGNTKYSQKFQGRVTITRDTSANTAYMELSSLRSEDTAVYYCARDEPVAGSFFDYWGQGTLVTVSS
VL: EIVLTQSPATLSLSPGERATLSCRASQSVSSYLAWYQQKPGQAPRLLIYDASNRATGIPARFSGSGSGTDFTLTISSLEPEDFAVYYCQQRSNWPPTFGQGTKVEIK
Turning to B2, the binding result with human CD40-GST and with monkey CD40-GST was “binds” each time.

B3: R2178 phage clone (scFv, V domains shown)
VH: QVQLQQWGAGLLKPSETLSLTCAVYGGSFSGYYWSWIRQSPGKGLEWIGEINHGGITNYNPSLKSRVTISVDTSKNQFSLKLGSVTAADTAVYYCARDNYYGSGSNDGVYQYYGIDVWGQGTTVTVSS
VL: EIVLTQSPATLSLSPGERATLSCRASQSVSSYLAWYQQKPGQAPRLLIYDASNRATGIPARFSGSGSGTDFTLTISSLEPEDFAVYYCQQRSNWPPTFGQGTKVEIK
As to B3, the binding result in the experiment with human CD40-GST and with monkey CD40-GST was “binds” each time.

B4: Epc051 phage clone (scFv, V domains shown)
VH: EVQLVQSGAEVKKPGASVKVSCKASGYTFTSNYMHWVRQAPGQGLEWMGIINPSGGATSYAQKFQGRVTMTRDTSTSTVYMELSSLRSEDTAVYYCASGGYYGSVIMDVWGQGTLVTVSS
VL: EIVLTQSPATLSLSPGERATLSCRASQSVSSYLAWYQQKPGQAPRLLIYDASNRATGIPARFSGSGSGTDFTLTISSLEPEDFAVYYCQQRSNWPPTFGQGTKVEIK
As for B4, the binding result with human EpCAM-GST, with mouse EpCAM-GST and in the experiment with monkey EpCAM-GST was “binds” each time.

B5: anti-EpCAM monoclonal antibody 3622W94 (antibody, V domains shown)
VH: QVQLVQSGPEVKKPGASVKVSCKASGYTFTNYGMNWVRQAPGQGLEWMGWINTYTGEPTYGEDFKGRFAFSLDTSASTAYMELSSLRSEDTAVYFCARFGNYVDYWGQGSLVTVSS
VL: DIVMTQSPLSLPVTPGEPASISCRSSKNLLHSNGITYLYWYLQKPGQSPQLLIYQMSNLASGVPDRFSSSGSGTDFTLKISRVEAEDVGVYYCAQNLEIPRTFGQGTKVEIK
As to B5, the binding result in experiment [1] is “no binding (tested: 10 ug/mL)”; in experiment [2], “binds”.

B6: R1066 phage clone (scFv, V domains shown)
VH: QVQLQQWGAGLLKPSETLSLTCAVYGGSFSGYYWSWIRQPPGKGLEWIGEINHGGITHYNPSLKSRVTISVDTSKNQFSLKLSSVTAADTAVYYCARDNYYGSGSYYKYDYYGMDVWGQGTTVTVSS
VL: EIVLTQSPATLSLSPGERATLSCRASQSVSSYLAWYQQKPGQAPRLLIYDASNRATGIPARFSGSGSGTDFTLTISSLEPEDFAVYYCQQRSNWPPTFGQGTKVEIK
Turning to B6, the binding result with human CD40-GST and with monkey CD40-GST was “binds” throughout.

B7: Ep203 phage clone (scFv, V domains shown)
VH: EVQLVQSGAEVKKPGASVKVSCKASGFTFSSYYMHWVRQAPGQGLEWMGIVNPTGGATSYAQKFQGRVTMTRDTSTSTVYMELSSLRSEDTAVYYCAKHGYGASTLFDSWGQGTLVTVSS
VL: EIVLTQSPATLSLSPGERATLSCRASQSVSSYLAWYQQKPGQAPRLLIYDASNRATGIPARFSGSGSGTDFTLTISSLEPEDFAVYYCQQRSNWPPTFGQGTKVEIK
Regarding B7, the binding result in the experiment with human EpCAM-GST, with mouse EpCAM-GST and with monkey EpCAM-GST was “binds” each time.

B8: anti-CD40 monoclonal antibody 21.4.1 (antibody, V domains shown)
VH: not shown
VL: DIQMTQSPSSVSASVGDRVTITCRASQGIYSWLAWYQQKPGKAPNLLIYTASTLQSGVPSRFSGSGSGTDFTLTISSLQPEDFATYYCQQANIFPLTFGGGTKVQIK
notes: also called anti-CD40 agonistic antibody; CP870,893
Turning to B8, the binding result in the experiment with mouse CD40 is “no binding”; in experiment [3], “no binding (tested: 10 ug/mL)”.

For the origin of these results see patent US20240059788A1 (Kyowa Kirin, published 2024).
